Where “and” joins values, the source holds several entries; their conditions need not be identical. Identical values can stand only once.

Substrate in series [1]: CCCCCCCCCCCCCCOS(=O)(=O)O
In words: Steady-state NADPH oxidation. The format is biochemical, Bacillus megaterium. The following applies: other: rates of NADPH oxidation, 23 °C, pH 7.4.

Substrate in series [2]: CCCCCCCCCCCCCCCC(=O)O
Briefly: Steady-state NADPH oxidation. The class given is biochemical, Bacillus megaterium. The settings on record: other: rates of NADPH oxidation, hyperbolic fit, 23 °C, pH 7.4.

B1: P450BM-3 (Priestia megaterium NBRC 15308 = ATCC 14581) (protein)
chain: MTIKEMPQPKTFGELKNLPLLNTDKPVQALMKIADELGEIFKFEAPGRVTRYLSSQRLIKEACDESRFDKNLSQALKFVRDFAGDGLFTSWTHEKNWKKAHNILLPSFSQQAMKGYHAMMVDIAVQLVQKWERLNADEHIEVPEDMTRLTLDTIGLCGFNYRFNSFYRDQPHPFITSMVRALDEAMNKLQRANPDDPAYDENKRQFQEDIKVMNDLVDKIIADRKASGEQSDDLLTHMLNGKDPETGEPLDDENIRYQIITFLIAGHETTSGLLSFALYFLVKNPHVLQKAAEEAARVLVDPVPSYKQVKQLKYVGMVLNEALRLWPTAPAFSLYAKEDTVLGGEYPLEKGDELMVLIPQLHRDKTIWGDDVEEFRPERFENPSAIPQHAFKPFGNGQRACIGQQFALHEATLVLGMMLKHFDFEDHTNYELDIKETLTLKPEGFVVKAKSKKIPLGGIPSPSTEQSAKKVRKKAENAHNTPLLVLYGSNMGTAEGTARDLADIAMSKGFAPQVATLDSHAGNLPREGAVLIVTASYNGHPPDNAKQFVDWLDQASADEVKGVRYSVFGCGDKNWATTYQKVPAFIDETLAAKGAENIADRGEADASDDFEGTYEEWREHMWSDVAAYFNLDIENSEDNKSTLSLQFVDSAADMPLAKMHGAFSTNVVASKELQQPGSARSTRHLEIELPKEASYQEGDHLGVIPRNYEGIVNRVTARFGLDASQQIRLEAEEEKLAHLPLAKTVSVEELLQYVELQDPVTRTQLRAMAAKTVCPPHKVELEALLEKQAYKEQVLAKRLTMLELLEKYPACEMKFSEFIALLPSIRPRYYSISSSPRVDEKQASITVSVVSGEAWSGYGEYKGIASNYLAELQEGDTITCFISTPQSEFTLPKDPETPLIMVGPGTGVAPFRGFVQARKQLKEQGQSLGEAHLYFGCRSPHEDYLYQEELENAQSEGIITLHTAFSRMPNQPKTYVQHVMEQDGKKLIELLDQGAHFYICGDGSQMAPAVEATLMKSYADVHQVSEADARLWLQQLEEKGRYAKDVWAG
As usually defined, the kcat/Km is the turnover number divided by the Michaelis constant. A word on the Km: it is the concentration of substrate that gives half-maximal velocity. Usually kcat stands for the number of substrate molecules converted per active site and unit of time at saturation. As for B1, the catalytic efficiency (kcat/Km) in series [1] is 7.7e+06 M⁻¹ s⁻¹ and 3e+06 M⁻¹ s⁻¹; in series [1] (hyperbolic fit), 7.67e+06 ± 1e+06 M⁻¹ s⁻¹. In addition, the Michaelis constant (Km) in series [1] (hyperbolic fit) was 4.2 ± 0.6 µM; in series [2], 67 ± 8 µM. Further, the catalytic constant (kcat) in series [1] (hyperbolic fit) was found to be 32.33 s⁻¹.

The values above are taken from PMC8317952.
